# Measured values from paper PMC10791742 (2024).
# B1: G08(LALA + YTE) human IgG1 (antibody, V domains shown)
# VH: EVQLVESGGGVVQPGRSLRLSCAASGFTFSSYGMHWVRQAPGKGLEWVAVISYDGSNKYYADSVKGRFTISRDNSKNTLYLQMNSLRAEDTAVYYCARTNYDSGDAFDIWGQGTLVTVSS
# VL: NFMLTQPHSVSESPGKTVTISCTRSSGSIASNYVQWYQQRPGSSPTTVIYEDNQRPSGVPDRFSGSIDSSSNSASLTISGLKTEDEADYYCQSYDSSTVVFGGGTKLTVL
# Legend:
# [1] = biological target: T1, myotoxin II from Bothrops asper (Bothrops asper, UniProt P24605 17-137, biotin (EZ-Link NHS-PEG4-Biotin, molar ratio 1:1.5 toxin:biotin)); assay: BLI
# T1 sequence (P24605 17-137): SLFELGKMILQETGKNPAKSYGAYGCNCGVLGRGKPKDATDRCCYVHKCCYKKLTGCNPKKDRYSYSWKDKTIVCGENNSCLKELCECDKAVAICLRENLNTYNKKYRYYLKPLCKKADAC
# [2] = biological target: T1, myotoxin II from Bothrops asper; assay: BLI; remark: listed apart in the source
binder,measurement,setting,value
B1,Kd,[1],9.41 nM
same,koff,[2],0.00283 s⁻¹
